The values below come from PMC7619462.

Test [1] concerns the target NPR-44 (C. elegans) (UniProt Q9N5L5).
Test [2] has as its target T1, NPR-33 (C. elegans) (UniProt O62189).
T1 sequence: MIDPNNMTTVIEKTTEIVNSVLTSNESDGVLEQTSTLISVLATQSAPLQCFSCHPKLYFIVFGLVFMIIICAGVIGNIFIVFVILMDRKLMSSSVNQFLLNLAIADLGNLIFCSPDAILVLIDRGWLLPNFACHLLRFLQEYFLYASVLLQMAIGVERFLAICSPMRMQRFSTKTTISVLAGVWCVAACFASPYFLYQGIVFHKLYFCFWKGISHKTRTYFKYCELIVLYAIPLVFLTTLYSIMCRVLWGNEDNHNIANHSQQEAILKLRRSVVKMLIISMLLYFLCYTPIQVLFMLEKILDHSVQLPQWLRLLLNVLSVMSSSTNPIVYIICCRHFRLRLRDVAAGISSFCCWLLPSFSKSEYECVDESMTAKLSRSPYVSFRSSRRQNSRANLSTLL

Chain of UniProt Q9N5L5 (Q9N5L5 entry or part of it): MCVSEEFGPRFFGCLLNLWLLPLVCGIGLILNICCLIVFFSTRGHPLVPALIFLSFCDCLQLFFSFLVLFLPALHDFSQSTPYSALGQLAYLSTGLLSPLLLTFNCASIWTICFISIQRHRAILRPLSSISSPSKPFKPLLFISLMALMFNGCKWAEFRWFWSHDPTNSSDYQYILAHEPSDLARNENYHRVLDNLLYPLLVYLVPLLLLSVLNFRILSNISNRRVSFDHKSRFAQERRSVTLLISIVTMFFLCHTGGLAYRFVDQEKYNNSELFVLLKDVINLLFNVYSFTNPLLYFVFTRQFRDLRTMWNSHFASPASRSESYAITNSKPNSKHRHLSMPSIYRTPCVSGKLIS

Turning to LHRIGGNIVM [NLP-69-1], in test [1], the EC50 of receptor activation: calcium mobilization (aequorin) in CHO cells co-expressing the GPCR and Gα16, concentration-response curve, n = 6; also significant calcium response at 10 μM was found to be 232 nM.
On to WYDWQNVPHALQQ [NLP-70-2], for which the EC50 of receptor activation: calcium mobilization (aequorin) in CHO cells co-expressing the GPCR and Gα16, concentration-response curve, n = 6; also significant calcium response at 10 μM in test [2] turned out to be 76.3 nM.
For WYEWNNDMEIT [NLP-70-1], in test [2], the EC50 of receptor activation: calcium mobilization (aequorin) in CHO cells co-expressing the GPCR and Gα16, concentration-response curve, n = 6 is 1160 nM.
